According to the domain aggregation screens of Martell et al. (2025):

Assay: soluble fraction after stress (log2 fold change); higher = more stays soluble; pooled small domains, quantitative proteomics
Conditions: stress: 75 degC
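Note: 20 min heating vs room temperature control held 20 min.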

Sequence	soluble fraction (log2)
HMDSADADLLRRIEDLLSSRRSVIREARLADMLGVPRDQVARALDLLQERGVIGLTTDSGMKRIAFRRN	-0.356
HMDSAQLARWAATILAQNGRKITPSTMNLFLERVGDDMENIRMELEKLISYTMGSEVVTAEDVKVITTVQ	-1.01
HMDSAVLQKHLVKLIELHAPIKARNLAKILADEFGKHVDRSAVNSALYSLKAERKVEVNSSYEWSLD	-2.25
HMDSDRAARLSSLTPQQFRVLRMVSEGQLNKQIAYQLNISEATVKSHVSAILQKLGVNSRTQAVILATRLD	-3.37
HMDSEQLSGLVNMGFSVYQAKTALEMFDNDIERAANYL	-0.478
HMDSERTALLSSDRTSFTAREAALLIGVSQRDIYRMIEDELLDSFTVGKMIRIRRSALEWWLS	-2.93
HMDSFEEGTYRKNQRGFGFVKIENQEDEIFISKENSLNALNGDRVIVEIIEDKDRTKRAEGKIKKILKHE	0.531
HMDSGLLSAREREVAGLVLSGMTYAEIGEAIFISPRTAEHHIARIRRRLGATSRTDLIAKLQAIVGID	-3.41
HMDSGVPEWLASALRASPVAWKNFLALPPSHQRRYVGWISSARRDETRNRRIAEAISLLVEHKRLG	-2.18
HMDSIKDQIYQILKEDILTGELRSGEQLVEQTIAARFNTSRSPVREAIKQLTGDGLVINITNKGTFVK	0.227
HMDSISEQIYSIIKEEILLAKRKPGEQINPRKLADEFETSVMPIRDALNQLANEGLVIRKPRVGFFVR	-0.501
HMDSITEADLLRWAHALSGIARTGLGFTESRYERERYEEVLAVAADILAASSRSHDRAALVDEWLKMVGV	-2.03
HMDSKKNLLGKNGLAFTTLRPAGTVLIDGQRHDVISNGDMIPKGATVRVIAIEGASITVEALPD	0.0814
HMDSMATVPDLVGKTEDEAKALANDAHLGVQMAGEEASDQEKGKISRQETAAGTQVAEYTTVKYWVSTGTQ	0.763
HMDSPALAIPSSAILRDGLEHIFFRQDPSDPDQVIRVVADLGLSDGRWTVVRSGLERTDQVVLSGA	0.181
HMDSQKKNETLSSTADEIIKNYAGKRDLSEESMEQLEQFQKDMRGADVNIFTAAQIRMLDQIFQENLH	0.221
HMDSSLVWVDYLLGSKLTKLNSSNELTGPGASAKTIGAFLGENKQSFDLYIESVHNARDTYSDILTHGT	-0.186
HMDSSSYSAKVGTLIQETRQARGMTQAQLAQALGTSQSAINRIEKGGQNISLDMLNRISEVLSSQIVTLNP	-0.0411
HMDSVAKSFLAEIERFLETAGLEPTTLGKQALGDPSFVFDLRKGRSPSTRTIGKLRVWMQQQNALS	-1.34
HMDSVTLGISFNGKTRFTLDFPADAAAADIEKAALEAEQSQRYLEGMTVAKVIVVPGRIVNIVLK	-2.23
HMDSVTMYATTGVNVRSGPSTSYSIVGGLDRGDKVTRIGTSGNWTKVVWGNGSAYVFSKYLQTGY	-3.04
HMDTAEQNWRLRGKLVTLGLNARQIRMALASHAPRYLEDNIAVVERDLAAGKVRNLPAYLLAALREDYRP	-1.86
HMDTEIGDILALRQIMELLDEKDRQLIIMRYFQGLTQSVTAKNLNMTQVQVSRREKKLLTFMREQLL	-0.702
HMDTEVVMINVVGMNIDKAKNSLNHKNILYKISYQDVSEGENNVVLKQSISSNTKIKKGQVVSLVVGKLN	-1.42
HMDTFEITVEESDIDKRIDLFLAGNLESFSRSYIQDLIKKGKATISGKPVKANYRLREGDSVVLSIPKPK	-0.209
HMDTGKLQSLVGSRGVAHTVLRPSGKVMIGDDVYPAVAETGFIPRGTAIVVRREEQGQLYVVEARK	-0.318

Sequence	soluble fraction (log2)
HMDTGPISGQVEADRVEVHGHLDGKISAQNVVVGQTGVVKGDIEFGENLRTEEGADIEGYIK	0.0611
HMDTGPSFATRRQEAFNALTQIAASNKEFMNVAGDVLWKVADFPEAQILAQRWRRIIPPNVLGEA	-0.465
HMDTIAEFIAELTPLEQKVFHVYYEKGQSLKDTAQQAEITSTSARGALDRIRAKGRHFHLAVILFIG	-0.7
HMDTINEYERNILSLITSKPGISAVQIAADTDKSIITAKRGIKTLVDGKLIEYRGSKKTGGYFLLTQS	-0.41
HMDTIYMVVAKNIKYYRLIKSMSKKDLAEAVNVTPMAISNYENGKRKPEIDILKKIANVLGVRVVDFLTVR	-4.45
HMDTKLFNYGVGKHAYISWNEGGKRTAYIGFGNDGADVLTINNVKQGGSLGIYKDKITLNSQTVLTD	-0.038
HMDTLHGRILEEFSRKIVDGTWPPGFSLPKETELADQYGVSRMTMNKVLTRLASDGFVIRRKRSGTVVAQP	-1.34
HMDTLTRAMVWTIIARAEGVDTTGGATWYAKAQEWVTAKGISDGENPNAAITRQELVTMLYRLAGEPAV	-3.56
HMDTMQQESMDTKSILATALMELTSRKNFAKITIADITHVSGFNRQTFYYHFRDKYELLSWIY	-0.0387
HMDTNRIIGNKIYQLRRSINMTQQELAEKVGISVTFLSEIENGRKSMSVDTLIKLSKGLQVSLDTIVF	-4.31
HMDTPVYYYVNGNGVRMRKDASLESDILILLYKGTKVEYVDVKGEWIKVKYNNEIGYIRNDLLSAEMPD	-0.784
HMDTQITPNKAKEIALAHAGVTEAAANFKKIKLDNKNGKSIYEIEFIANKSRYEFIVDAKNGSIIKFEK	-0.378
HMDTRKEREIALYEAALRLIASGVNPAAMKVQQIADEAGIGKGTVYEYFASKEEILHGMALH	-0.218
HMDTTLFGLFQNVILTQEDYEELSRTIVEDLDGLIDRLSAYMTSTGKTYKNHKATLLSWYLQDEKKFK	-1.78
HMDTVEALTEQLKKLDKRGEGQIPAPEFKQYMMNMGGKMTAEELDEMMKVADPGKEGVVNIAEFADAL	0.313
HMDTVEFPVQVNGKVRGKITVAADAGKDAIETAALADEKVLAFLDGATPKKVIVVPGKLVNLVVQPG	0.62
HMDTVSYMSDAVKAGAVTPSHDEEARARYLLYAGFGAILLFLRYEASEPGDIESAIREFMERYGPVTAELY	0.347
HMDTYKGFIFEVVDKYFSPTLNQKIGQAKNKQGIVLLQTKPSFTQDPKVLIEELKLIIDRDNLKA	-1.07
HMDVAAQITYAMRTMGVAPIPRNYELFYEAYIGSNPALTKELAALGSKATQEELDELGQQYF	-1.89
HMDVFPDESLKAWLIEMGFKLDQKKMNVFTVLRRMLLQTAPSVKEFRILEIVLQQSRRKLKELNDLKKS	-0.00949
HMDVKQSAAGVAGRIRFELNRTLTGQGHEKFTSASQAIGPRPAAELARRLFNSGSVVGVHVFANIVTVDLL	0.136
HMDVLKMKVEDLNIGSRTVNSLTAAKIKTVAGLIKKSKESLLELDGMGNKGVEEIILALKKLGLEL	-1.08
HMDVPTEEAILAYNNVPIELAAKFIGWSDITIRYALQEERAPFGMAAQNPKTGTWSYNISPGLLLKYKSGE	-2.23
HMDVPVEVFMERIVTALREGRKTTFSELMEGKPERGKVIGTFLALLQLSKGQQIQIHQEQRTGEISIEGGA	-0.328
HMDVQTVTVIENVNVRKSASENGQKLGLAYTGEKLELLMKQADGWTRVKYNGETAYVKSDYV	0.372
HMDVTSLDMLRFLMDQHGLRQQDLSELGSQGVVSEILAGKRELNLRHIGALARRFKVPPEVFLPA	-0.778

Sequence	soluble fraction (log2)
HMDVYKRQKLRNFIESLFEDAPKNKQTIELKEEMLQNLIDKYNDLVDSGKSSEAAYNIATAS	0.131
HMDWNPVRDITAHQVLAILQATHIRAPTVAAEAKRTLSSIFQFAVATLRADIDPVWPVRNALPKNKT	-0.262
HMDYARYGLSEKEAELIELIAQGMNNKEISAEIYLSEGTVRNYISELLEKLELRDRTQLAVYYYTHR	-2.72
HMDYDDLVPLDARGRLRLDGQDIILAFGRHRGRSIEEVHNHDKSYFDWLVSPAGGLEDEVIATLRERF	-0.613
HMDYENGTVKWFNTKKGYGFITRENGEDLFVHFRNIKGRGRRSLNDGEPVTFVVIEGDKGLQADQVSA	-0.34
HMDYGSLQRAIENQLEVRNYQKPKKFLTKIIQLMETIMVRHGVMVVGLTGTGKTTVIETLSRSMEQ	-0.591
HMDYIGIQAAKEAALKDADISSEQAVFTMAELDNKNNIFYYQIMFTENGTEYRYDIDALTGVIIEKNHFF	-2.4
HMDYKLDVNFPEMYLEQIPAEKRAALIQILEQDPRPSYQKDPVRIYGMSYAGMEIHFRVDKETLYVTEVER	-1.06
HMDYLSEFITDKVVRADGYSIRKGELSNEFKQWFITNVGTKNPKPKEIHDYMDRKFGKNKNGIWKNVKIKL	-0.492
HMDYQEVEFEKLGKEILTKILLDINKKATKKTLKILIDGFNYDSYRSFYIAIGKAQISSDSILELLQH	-0.994
HMDYSWNFFIGFSVVDKVAGNLGTIEEIDDKTINTLFLVKNDDEDLIIPATEDFVEKIDAKKRILYLNLPE	-2.51
HMDYYASVDQVWRELGLAGPARRALIDDGLFKLSDLRKTSLAAVKELHGMGPNAIRILTTEMKKADLSFR	-2.15
HMDYYDTLGVPRNASQSDIKKAYKKQSMQHHPDRTGGDDTKFKDVNEAYQVLSNSEKKQMYDQFGTA	0.07
HMDYYNILGVNKAATAQDIKRAYRKLAKEHHPDHGGDATRLQQVNEAYDTLKDPQRREQYDS	0.215
HMEAADAGTLAQRAAQYFNEKNYAAALDALERRAAMAPETTELRMMRGWSLLHLNRKDEARNAFATLG	-0.101
HMEAAIRNALSRVENPDETQRARIYRTAHDALIRNLENRGITDPEQVRPQVSRLKDLISVIEREYHG	-0.131
HMEAALTLRVDKAGSLRSLLSDEQYAKTSKIIVSGEINTLDIKTLQEMSGEKGSLQSIDLSQANIVAY	0.0407
HMEAFELTPREKQVLQLLVQGKAYKIIAADLDITYDTVRAHIKKIYEKLHVGSMTEAVAKAIQHKL	-2.08
HMEAKKVIAVHIIGEINKPGIVELEEGARVIDAIKKAGGTTEKADLAQINLAYILKDGQKIYIPNTEDN	0.254
HMEALASESVKDKIRKIIDSEDPSRPMSDQRIKEMLKAANIDIARRTVTKYREAMNILSSTKRRQV	-0.432
HMEALDPLTAREQEVLEMILSGKSNREIAAELHITENTVKTHAQSIYSKYDVRGRAKLISLLLKGEA	-0.406
HMEALQKVSINYYDEGAGKQIAEVPLEVGAGDTEIALAVINKYMPAEYNLVSTDYQIRGGYVYVSVTPA	-0.49
HMEAPPHEALSNREFQVLQLLSQGRSVTQIAHQLTLSANTISTYRARIFDKLGLHNPADLYAYAARHGLM	-2.41
HMEAPWQEIKRQVMDGLDMSREFTDEELRERIALAVRSYSKEKLLSLKVRESYEEQIFNSFR	-1.05
HMEAQFIDINDVRIGTYVYVDLGWIKHPFALNSFKITSRDQIDTLIKLGVKRIRWSPEKSDS	-3.18
